This is an account of results in paper PMC9029707, “Crystal Structure of an SSB Protein from Salmonella enterica and Its Inhibition by Flavanonol Taxifolin” (International Journal of Molecular Sciences, 2022).

The target of data set [1] is T1, SeSSB (single-stranded DNA-binding protein, STM_4256) (Salmonella enterica, UniProt P0A2F6).
T1 construct: gene ssb; His-tagged SeSSB, 176 residues (pET21b-SeSSB)
Description: EMSA, inhibition of binding of purified SeSSB ([…]) to biotinylated ssDNA dT35. A general note: In EMSA bound probe runs differently from free probe, usually more slowly.

For data set [2], the target named is T2, SeSSB (single-stranded DNA-binding protein) (Salmonella enterica serovar Typhimurium …, UniProt P0A2F6 1-176). The experiment in a line: EMSA; single complex; SeSSB 0-4000 nM; dA EMSA: 20 mM Tris-HCl pH 8.0, 100 mM NaCl, 25 C, 30 min, 1.7 nM DNA; dT35 EMSA: 40 mM Tris-HCl pH 7.5, 50 mM NaCl, 37 C, 60 min, 30 fmol/uL DNA; 8% native PAGE in TBE. The conditions noted are these: protein: recombinant; tags: His-tag (pET21b); chain copies: 4; label: 5'-32P (T4 PNK); single strand.

Data set [3] addresses T2, SeSSB (single-stranded DNA-binding …). The experiment in a line: EMSA; two complexes; SeSSB 0-4000 nM; dA EMSA: 20 mM Tris-HCl pH 8.0, 100 mM NaCl, 25 C, 30 min, 1.7 nM DNA; dT35 EMSA: 40 mM Tris-HCl pH 7.5, 50 mM NaCl, 37 C, 60 min, 30 fmol/uL DNA; 8% native PAGE in TBE. The following applies: protein: recombinant; tags: His-tag (pET21b); chain copies: 4; label: 5'-32P (T4 PNK); single strand.

Data set [4] deals with the molecule itself. The experiment in a line: SEC; purified SeSSB (5 mg/mL) on a Superdex 200 prep-grade column in 100 mM NaCl, 100 mM MES, pH 6.5; calibrated with standard proteins; native mass estimated 76641 Da; tetramer.
Data set [5] deals with T2, SeSSB (single-stranded DNA-binding …). Description: EMSA; 37 C, 40 mM Tris-HCl pH 7.5, 50 mM NaCl; protein at 50% bound; dA EMSA: 20 mM Tris-HCl pH 8.0, 100 mM NaCl, 25 C, 30 min, 1.7 nM DNA; dT35 EMSA: 40 mM Tris-HCl pH 7.5, 50 mM NaCl, 37 C, 60 min, 30 fmol/uL DNA; 8% native PAGE in TBE. The following applies: protein: recombinant; tags: His-tag (pET21b); chain copies: 4; label: biotin (5' per Methods 4.5; 3' per Results 2.5); single strand.

For data set [6] the target is unchanged. Description: EMSA; two complexes at higher SeSSB (0-4000 nM); dA EMSA: 20 mM Tris-HCl pH 8.0, 100 mM NaCl, 25 C, 30 min, 1.7 nM DNA; dT35 EMSA: 40 mM Tris-HCl pH 7.5, 50 mM NaCl, 37 C, 60 min, 30 fmol/uL DNA; 8% native PAGE in TBE. The conditions noted are these: protein: recombinant; tags: His-tag (pET21b); chain copies: 4; label: 5'-32P (T4 PNK); single strand.

The molecule `O=C1c2c(O)cc(O)cc2O[C@H](c2ccc(O)c(O)c2)[C@H]1O` [taxifolin] yielded an IC50 in data set [1] of 98 ± 12 µM.

As to AAAAAAAAAAAAAAAAAAAAAAAAAAAAAAAAAAAAAAAA (ssDNA) [dA40], the binding result in data set [2] was “binds”.

B1: dA55 (ssDNA)
DNA: AAAAAAAAAAAAAAAAAAAAAAAAAAAAAAAAAAAAAAAAAAAAAAAAAAAAAAA
Take B1: in data set [3], the binding result is reported as “binds”. Still for that read-out and setting: in the case of AAAAAAAAAAAAAAAAAAAAAAAAAAAAAAAAAAAAAAAAAAAAAAAAAA (ssDNA) [dA50] it was “binds”.

B2: Single-stranded DNA-binding protein (SSB) from Salmonella enterica serovar Typhimurium LT2 (natural protein, UniProt P0A2F6 1-176, looked up)
chain: MASRGVNKVILVGNLGQDPEVRYMPSGGAVANLTLATSESWRDKQTGEMKEQTEWHRVVMFGKLAEVAGEYLRKGSQVYIEGQLRTRKWTDQSGQERYTTEINVPQIGGVMQMLGGRQGGGAPAGGQQQGGWGQPQQPQQPQGGNQFSGGAQSRPQQSAPAPSNEPPMDFDDDIPF
notes: SSB (STM_4256) of Salmonella enterica serovar Typhimurium LT2; monomer of 176 amino acid residues, ~19 kDa; residues 1-115 ordered and 116-176 disordered in the crystal; No removal of the tag is described; also called SeSSB; S. enterica SSB
Regarding B2, in data set [4], the “stoichiometry N” value is 4.

Take AAAAAAAAAAAAAAAAAAAAAAAAAAAAAAAAAAA (ssDNA) [dA35]: in data set [2], the binding result is recorded as “binds”.

Turning to TTTTTTTTTTTTTTTTTTTTTTTTTTTTTTTTTTT (ssDNA) [dT35], the dissociation constant Kd in data set [5] was 0.23 ± 0.02 µM.

In the case of AAAAAAAAAAAAAAAAAAAAAAAAAAAAAAAAAAAAAAAAAAAAA (ssDNA) [dA45], the binding result in data set [6] is “binds”.

Broadly, the IC50 is the concentration that inhibits the measured activity by half. A lower IC50 goes with greater potency. As a reminder, the stoichiometry N is the number of molecules, sites or subunits per partner or assembly. Usually Kd stands for the concentration at which binding is half-saturated.
